Assay results published in US20250084142A1 (INTARCIA THERAPEUTICS, published 2025).
Starred links: 1 amine or outer side, 2 acyl side, 3 side chain; linkers in the order of their positions; H or OH if unused. Non-standard residues stand in square brackets, D forms with d. Groups on a side chain read outwards from the residue. No end group written: not given here. *: point of attachment. C20 diacid = O=C(O)CCCCCCCCCCCCCCCCCCC(=O)*; Phe(4-Me) = Cc1ccc(C[C@H](N)C(=O)O)cc1; γGlu = O=C(O)[C@H](CCC(=O)[*:2])N[*:1]

Assays:
[1] = biological target: T1, NPY2R; experiment: cell-based or functional assay
T1 sequence (P49146 1-381, species assumed, looked up): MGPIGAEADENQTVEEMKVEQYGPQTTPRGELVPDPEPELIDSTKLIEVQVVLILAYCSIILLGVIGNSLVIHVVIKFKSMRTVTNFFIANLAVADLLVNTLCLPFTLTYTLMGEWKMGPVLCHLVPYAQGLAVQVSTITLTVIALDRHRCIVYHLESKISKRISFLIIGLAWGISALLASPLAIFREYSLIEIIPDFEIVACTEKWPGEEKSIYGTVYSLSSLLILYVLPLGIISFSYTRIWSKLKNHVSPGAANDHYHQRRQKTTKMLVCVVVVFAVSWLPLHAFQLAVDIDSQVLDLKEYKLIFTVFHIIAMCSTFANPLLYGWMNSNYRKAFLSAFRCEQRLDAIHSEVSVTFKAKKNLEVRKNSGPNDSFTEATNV

[2] = biological target: T2, NPY5R; experiment: cell-based or functional assay
T2 sequence (Q15761 1-445, species assumed, looked up): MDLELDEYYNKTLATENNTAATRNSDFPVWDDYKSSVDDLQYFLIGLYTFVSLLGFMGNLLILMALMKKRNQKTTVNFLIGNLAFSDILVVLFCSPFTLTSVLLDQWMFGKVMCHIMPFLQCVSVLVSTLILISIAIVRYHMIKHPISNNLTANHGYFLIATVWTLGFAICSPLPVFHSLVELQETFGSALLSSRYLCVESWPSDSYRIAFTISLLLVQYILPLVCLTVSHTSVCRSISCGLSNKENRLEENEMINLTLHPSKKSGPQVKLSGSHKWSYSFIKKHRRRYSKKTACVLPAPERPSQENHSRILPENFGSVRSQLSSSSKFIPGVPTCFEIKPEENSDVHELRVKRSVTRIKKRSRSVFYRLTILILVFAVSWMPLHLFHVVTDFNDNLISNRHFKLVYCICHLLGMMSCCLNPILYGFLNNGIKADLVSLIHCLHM

B1: Compound A50 (peptide)
peptide: PKPEAPGKDASPEEWNRYYADLRHYLNWLTRK([γGlu-γGlu-C20 diacid])RF-NH2
modifications: N-terminus assumed
SMILES: CC(C)C[C@H](NC(=O)[C@H](CC(=O)O)NC(=O)[C@H](C)NC(=O)[C@H](Cc1ccc(O)cc1)NC(=O)[C@H](Cc1ccc(O)cc1)NC(=O)[C@H](CCCNC(=N)N)NC(=O)[C@H](CC(N)=O)NC(=O)[C@H](Cc1c[nH]c2ccccc12)NC(=O)[C@H](CCC(=O)O)NC(=O)[C@H](CCC(=O)O)NC(=O)[C@@H]1CCCN1C(=O)[C@H](CO)NC(=O)[C@H](C)NC(=O)[C@H](CC(=O)O)NC(=O)[C@H](CCCCN)NC(=O)CNC(=O)[C@@H]1CCCN1C(=O)[C@H](C)NC(=O)[C@H](CCC(=O)O)NC(=O)[C@@H]1CCCN1C(=O)[C@H](CCCCN)NC(=O)[C@@H]1CCCN1)C(=O)N[C@@H](CCCNC(=N)N)C(=O)N[C@@H](Cc1c[nH]cn1)C(=O)N[C@@H](Cc1ccc(O)cc1)C(=O)N[C@@H](CC(C)C)C(=O)N[C@@H](CC(N)=O)C(=O)N[C@@H](Cc1c[nH]c2ccccc12)C(=O)N[C@@H](CC(C)C)C(=O)N[C@H](C(=O)N[C@@H](CCCNC(=N)N)C(=O)N[C@@H](CCCCNC(=O)CC[C@H](NC(=O)CC[C@H](NC(=O)CCCCCCCCCCCCCCCCCCC(=O)O)C(=O)O)C(=O)O)C(=O)N[C@@H](CCCNC(=N)N)C(=O)N[C@@H](Cc1ccccc1)C(N)=O)[C@@H](C)O
[1]
  NPY2R pEC50: 6 -Log(EC50, M)
[2]
  NPY5R pEC50: 6 -Log(EC50, M)

B2: Compound A52 (peptide)
peptide: PKPEAPGKDASPEEWNRYYADLRHK([γGlu-γGlu-C20 diacid])LNWLTRQRF-NH2
modifications: N-terminus assumed
SMILES: CC(C)C[C@H](NC(=O)[C@H](CC(=O)O)NC(=O)[C@H](C)NC(=O)[C@H](Cc1ccc(O)cc1)NC(=O)[C@H](Cc1ccc(O)cc1)NC(=O)[C@H](CCCNC(=N)N)NC(=O)[C@H](CC(N)=O)NC(=O)[C@H](Cc1c[nH]c2ccccc12)NC(=O)[C@H](CCC(=O)O)NC(=O)[C@H](CCC(=O)O)NC(=O)[C@@H]1CCCN1C(=O)[C@H](CO)NC(=O)[C@H](C)NC(=O)[C@H](CC(=O)O)NC(=O)[C@H](CCCCN)NC(=O)CNC(=O)[C@@H]1CCCN1C(=O)[C@H](C)NC(=O)[C@H](CCC(=O)O)NC(=O)[C@@H]1CCCN1C(=O)[C@H](CCCCN)NC(=O)[C@@H]1CCCN1)C(=O)N[C@@H](CCCNC(=N)N)C(=O)N[C@@H](Cc1c[nH]cn1)C(=O)N[C@@H](CCCCNC(=O)CC[C@H](NC(=O)CC[C@H](NC(=O)CCCCCCCCCCCCCCCCCCC(=O)O)C(=O)O)C(=O)O)C(=O)N[C@@H](CC(C)C)C(=O)N[C@@H](CC(N)=O)C(=O)N[C@@H](Cc1c[nH]c2ccccc12)C(=O)N[C@@H](CC(C)C)C(=O)N[C@H](C(=O)N[C@@H](CCCNC(=N)N)C(=O)N[C@@H](CCC(N)=O)C(=O)N[C@@H](CCCNC(=N)N)C(=O)N[C@@H](Cc1ccccc1)C(N)=O)[C@@H](C)O
[1]
  NPY2R pEC50: 8.4 -Log(EC50, M)
[2]
  NPY5R pEC50: 8 -Log(EC50, M)

B3: Compound A54 (peptide)
peptide: PKPEAPGKDASPEEWNRYYK([γGlu-γGlu-C20 diacid])DLRHYLNWLTRQRF-NH2
modifications: N-terminus assumed
SMILES: CC(C)C[C@H](NC(=O)[C@H](CC(=O)O)NC(=O)[C@H](CCCCNC(=O)CC[C@H](NC(=O)CC[C@H](NC(=O)CCCCCCCCCCCCCCCCCCC(=O)O)C(=O)O)C(=O)O)NC(=O)[C@H](Cc1ccc(O)cc1)NC(=O)[C@H](Cc1ccc(O)cc1)NC(=O)[C@H](CCCNC(=N)N)NC(=O)[C@H](CC(N)=O)NC(=O)[C@H](Cc1c[nH]c2ccccc12)NC(=O)[C@H](CCC(=O)O)NC(=O)[C@H](CCC(=O)O)NC(=O)[C@@H]1CCCN1C(=O)[C@H](CO)NC(=O)[C@H](C)NC(=O)[C@H](CC(=O)O)NC(=O)[C@H](CCCCN)NC(=O)CNC(=O)[C@@H]1CCCN1C(=O)[C@H](C)NC(=O)[C@H](CCC(=O)O)NC(=O)[C@@H]1CCCN1C(=O)[C@H](CCCCN)NC(=O)[C@@H]1CCCN1)C(=O)N[C@@H](CCCNC(=N)N)C(=O)N[C@@H](Cc1c[nH]cn1)C(=O)N[C@@H](Cc1ccc(O)cc1)C(=O)N[C@@H](CC(C)C)C(=O)N[C@@H](CC(N)=O)C(=O)N[C@@H](Cc1c[nH]c2ccccc12)C(=O)N[C@@H](CC(C)C)C(=O)N[C@H](C(=O)N[C@@H](CCCNC(=N)N)C(=O)N[C@@H](CCC(N)=O)C(=O)N[C@@H](CCCNC(=N)N)C(=O)N[C@@H](Cc1ccccc1)C(N)=O)[C@@H](C)O
[1]
  NPY2R pEC50: 7.7 -Log(EC50, M)
[2]
  NPY5R pEC50: 8 -Log(EC50, M)

B4: Compound A58 (peptide)
peptide: PKPEAPGK([γGlu-γGlu-C20 diacid])DASPEEWNRYYADLRHYLNWLTRQR[Phe(4-Me)]-NH2
[1]
  NPY2R pEC50: 10.3 -Log(EC50, M)
[2]
  NPY5R pEC50: 8.8 -Log(EC50, M)

B5: Compound A51 (peptide)
peptide: PKPEAPGKDASPEEWNRYYADLRHYLK([γGlu-γGlu-C20 diacid])WLTRQRF-NH2
modifications: N-terminus assumed
SMILES: CC(C)C[C@H](NC(=O)[C@H](CC(=O)O)NC(=O)[C@H](C)NC(=O)[C@H](Cc1ccc(O)cc1)NC(=O)[C@H](Cc1ccc(O)cc1)NC(=O)[C@H](CCCNC(=N)N)NC(=O)[C@H](CC(N)=O)NC(=O)[C@H](Cc1c[nH]c2ccccc12)NC(=O)[C@H](CCC(=O)O)NC(=O)[C@H](CCC(=O)O)NC(=O)[C@@H]1CCCN1C(=O)[C@H](CO)NC(=O)[C@H](C)NC(=O)[C@H](CC(=O)O)NC(=O)[C@H](CCCCN)NC(=O)CNC(=O)[C@@H]1CCCN1C(=O)[C@H](C)NC(=O)[C@H](CCC(=O)O)NC(=O)[C@@H]1CCCN1C(=O)[C@H](CCCCN)NC(=O)[C@@H]1CCCN1)C(=O)N[C@@H](CCCNC(=N)N)C(=O)N[C@@H](Cc1c[nH]cn1)C(=O)N[C@@H](Cc1ccc(O)cc1)C(=O)N[C@@H](CC(C)C)C(=O)N[C@@H](CCCCNC(=O)CC[C@H](NC(=O)CC[C@H](NC(=O)CCCCCCCCCCCCCCCCCCC(=O)O)C(=O)O)C(=O)O)C(=O)N[C@@H](Cc1c[nH]c2ccccc12)C(=O)N[C@@H](CC(C)C)C(=O)N[C@H](C(=O)N[C@@H](CCCNC(=N)N)C(=O)N[C@@H](CCC(N)=O)C(=O)N[C@@H](CCCNC(=N)N)C(=O)N[C@@H](Cc1ccccc1)C(N)=O)[C@@H](C)O
[1]
  NPY2R pEC50: 6 -Log(EC50, M)
[2]
  NPY5R pEC50: 6 -Log(EC50, M)

B6: Compound A55 (peptide)
peptide: PKPEAPGKDASPEEWK([γGlu-γGlu-C20 diacid])RYYADLRHYLNWLTRQRF-NH2
modifications: N-terminus assumed
SMILES: CC(C)C[C@H](NC(=O)[C@H](CC(=O)O)NC(=O)[C@H](C)NC(=O)[C@H](Cc1ccc(O)cc1)NC(=O)[C@H](Cc1ccc(O)cc1)NC(=O)[C@H](CCCNC(=N)N)NC(=O)[C@H](CCCCNC(=O)CC[C@H](NC(=O)CC[C@H](NC(=O)CCCCCCCCCCCCCCCCCCC(=O)O)C(=O)O)C(=O)O)NC(=O)[C@H](Cc1c[nH]c2ccccc12)NC(=O)[C@H](CCC(=O)O)NC(=O)[C@H](CCC(=O)O)NC(=O)[C@@H]1CCCN1C(=O)[C@H](CO)NC(=O)[C@H](C)NC(=O)[C@H](CC(=O)O)NC(=O)[C@H](CCCCN)NC(=O)CNC(=O)[C@@H]1CCCN1C(=O)[C@H](C)NC(=O)[C@H](CCC(=O)O)NC(=O)[C@@H]1CCCN1C(=O)[C@H](CCCCN)NC(=O)[C@@H]1CCCN1)C(=O)N[C@@H](CCCNC(=N)N)C(=O)N[C@@H](Cc1c[nH]cn1)C(=O)N[C@@H](Cc1ccc(O)cc1)C(=O)N[C@@H](CC(C)C)C(=O)N[C@@H](CC(N)=O)C(=O)N[C@@H](Cc1c[nH]c2ccccc12)C(=O)N[C@@H](CC(C)C)C(=O)N[C@H](C(=O)N[C@@H](CCCNC(=N)N)C(=O)N[C@@H](CCC(N)=O)C(=O)N[C@@H](CCCNC(=N)N)C(=O)N[C@@H](Cc1ccccc1)C(N)=O)[C@@H](C)O
[1]
  NPY2R pEC50: 8.9 -Log(EC50, M)
[2]
  NPY5R pEC50: 7.7 -Log(EC50, M)

B7: Compound A53 (peptide)
peptide: PKPEAPGKDASPEEWNRYYADLK([γGlu-γGlu-C20 diacid])HYLNWLTRQRF-NH2
modifications: N-terminus assumed
SMILES: CC(C)C[C@H](NC(=O)[C@H](CC(=O)O)NC(=O)[C@H](C)NC(=O)[C@H](Cc1ccc(O)cc1)NC(=O)[C@H](Cc1ccc(O)cc1)NC(=O)[C@H](CCCNC(=N)N)NC(=O)[C@H](CC(N)=O)NC(=O)[C@H](Cc1c[nH]c2ccccc12)NC(=O)[C@H](CCC(=O)O)NC(=O)[C@H](CCC(=O)O)NC(=O)[C@@H]1CCCN1C(=O)[C@H](CO)NC(=O)[C@H](C)NC(=O)[C@H](CC(=O)O)NC(=O)[C@H](CCCCN)NC(=O)CNC(=O)[C@@H]1CCCN1C(=O)[C@H](C)NC(=O)[C@H](CCC(=O)O)NC(=O)[C@@H]1CCCN1C(=O)[C@H](CCCCN)NC(=O)[C@@H]1CCCN1)C(=O)N[C@@H](CCCCNC(=O)CC[C@H](NC(=O)CC[C@H](NC(=O)CCCCCCCCCCCCCCCCCCC(=O)O)C(=O)O)C(=O)O)C(=O)N[C@@H](Cc1c[nH]cn1)C(=O)N[C@@H](Cc1ccc(O)cc1)C(=O)N[C@@H](CC(C)C)C(=O)N[C@@H](CC(N)=O)C(=O)N[C@@H](Cc1c[nH]c2ccccc12)C(=O)N[C@@H](CC(C)C)C(=O)N[C@H](C(=O)N[C@@H](CCCNC(=N)N)C(=O)N[C@@H](CCC(N)=O)C(=O)N[C@@H](CCCNC(=N)N)C(=O)N[C@@H](Cc1ccccc1)C(N)=O)[C@@H](C)O
[1]
  NPY2R pEC50: 8.7 -Log(EC50, M)
[2]
  NPY5R pEC50: 7.3 -Log(EC50, M)
